Read-outs that look alike come from different tables or passages of the source.
Tests used:
[1] = test system: labeled N-terminal LA peptide; assay: Stopped-flow dissociation rate (koff), PS557 derivatives; assay type: binding; conditions: excess unlabeled trap peptide
Excerpt: (§1) To measure the dissociation rate (koff) by stopped-flow, complexes of binder bound to labeled peptide substrate at an optimal concentration were rapidly mixed with excess unlabeled trap peptide. […] The averaged raw traces were fitted with an exponential equation to determine the koff (FIG. 37B, bottom panel).

[2] = test system: labeled N-terminal FA peptide; assay: Stopped-flow dissociation rate (koff), atClpS2-V1 derivatives; assay type: binding; conditions: excess unlabeled trap peptide
Excerpt: as §1

[3] = test system: N-terminal amino acids of peptides; assay: Single-molecule terminal amino acid recognition by labeled recognition molecule (dwell time analysis); assay type: binding
Experimental: An adaptor protein involved in proteolytic pathways was identified as a potential candidate for use as a labeled recognition molecule for detecting N-terminal aromatic residues. The adaptor protein, ClpS2 from an α-proteobacterium (A. tumefaciens), was expressed and labeled at an exposed cysteine residue. […] The exposed cysteine residue was labeled with a rhodamine dye (ATTO 532).
Peptides having different N-terminal aromatic residues were prepared to test whether the labeled ClpS2 was capable of N-terminal amino acid discrimination at the single molecule level.
FIG. 19C is a plot showing discriminant pulse durations (time duration of signal peaks) among the three N-terminal residues when reversibly bound by labeled ClpS2. FIG. 19D is a plot showing discriminant interpulse durations (time duration between signal pulses) among the three N-terminal residues. […] Mean pulse duration for the different N-terminal residues is visualized by histograms (A)-(B) and layered histogram (C).

[4] = test system: amino acid at a terminal position of a polypeptide; assay: Amino acid binding preference of recognition proteins (Tables 1 and 2); conditions: Table 1, ClpS proteins; amino acid identity at a terminal position of a polypeptide; inferred from literature and/or demonstrated by the inventors
Excerpt: It should be appreciated that these sequences and other examples described herein are meant to be non-limiting, and recognition molecules in accordance with the application can include any homologs, variants thereof, or fragments thereof minimally containing domains or subdomains responsible for peptide recognition.

[5] = biological target: T1, fluorescently-labeled peptide containing N-terminal phospho-tyrosine (Homo sapiens, UniProt P06241, C239S/C240S/C246S/K204L/S186A/T181V); assay: Single-molecule recognition of modified amino acids by immobilized Fyn SH2 variant; assay type: binding
T1 construct: Src Homology 2 (SH2) domain from Fyn
Experimental: Experiments were performed to evaluate recognition of amino acids containing specific post-translation modifications. […] The variant protein was immobilized to the bottom of sample wells, and single-molecule signal traces were collected upon addition of a fluorescently-labeled peptide containing N-terminal phospho-tyrosine. […] Pulse duration data collected during these experiments is shown in FIG. 22B (top, middle, and bottom plots corresponding to the top, middle, and bottom traces of FIG. 22A, respectively). Pulse duration and interpulse duration statistics are shown in FIG. 22C (top and bottom panels, respectively). Control experiments were performed to confirm that the Fyn protein was specific for the phosphorylated tyrosine. The experiments were repeated for each of three different peptides: a first peptide containing N-terminal unmodified tyrosine (Y; FIG. 22D), a second peptide containing N-terminal and penultimate unmodified tyrosines (YY; FIG. 22E), and a third peptide containing N-terminal phospho-serine (FIG. 22F).

[6] = test system: amino acid at a terminal position of a polypeptide; conditions: Table 2; amino acid identity at a terminal position (phosphotyrosine also internal); inferred from literature and/or demonstrated by the inventors; cited from earlier work
[7] = test system: immobilized peptide containing N-terminal phenylalanine (FYPLPWPDDDY (SEQ ID NO: 235)); assay: Simultaneous single-molecule recognition with differentially labeled recognition molecules; assay type: binding; conditions: 500 nM each binder
Experimental: Single peptide molecules containing N-terminal phenylalanine ([…] (SEQ ID NO: 235)) were immobilized in sample wells of a chip. Buffer containing 500 nM each of atClpS1 (Agrobacterium tumifaciens ClpS1; sequence provided in Table 1) and atClpS2-V1 (Agrobacterium tumifaciens ClpS2 variant 1; sequence provided in Table 1) was added, where atClpS1 and atClpS2-V1 were labeled with Cy3 and Cy3B, respectively. Since the intensity of Cy3B is higher than Cy3, atClpS2-V1 binding events were readily distinguishable from atClpS1 binding events.
The pulse duration distributions were distinct for each binder (FIG. 24B) and corresponded to their kinetic profiles as observed in single-binder experiments. Mean pulse duration was 1.3 seconds for atClpS1 and 1.0 seconds for atClpS2-V1 (FIG. 24C). Pulse rate was also distinct: 8.1 pulses/min for atClpS1 and 14.1 pulses/min for atClp2-V1 (FIG. 24C).

B1: PS696 (protein)
chain: MPTAASATESAIEDTPAPARPEVDGRTKPKRQPRYHVVLWNDDDHTYQYVVVMLQSLFGHPPERGYRLAKEVDTQGRVIVLTTTREHAELKRDQIHAFGYDRLLARSKGSMKASIEAEEGSAGSAAGSGEFMDKDCEMKRTTLDSPLGKLELSGCEQGLHEIKLLGKGTSAADAVEVPAPAAVLGGPEPLMQATAWLNAYFHQPEAIEEFPVPALHHPVFQQESFTRQVLWKLLKVVKFGEVISYQQLAALAGNPAATAAVKTALSGNPVPILIPCHRVVSSSGAVGGYEGGLAVKEWLLAHEGHRLGKPGLGGSAGSAAGSGEFHHHHHHHHHHGGGSGGGSGGGSGLNDFFEAQKIEWHEGGGSGGGSGGGSGLNDFFEAQKIEWHE
[1]
  LA koff: 0.15 s⁻¹

B2: PS704 (protein)
chain: MSDSPVDLKPKPKVKPKLERPKLYKVMLLNDDYTPMSFVTVVLKAVFRMSEDTGRRVMMTAHRFGSAVVVVCERDIAETKAKEATDLGKEAGFPLMFTTEPEEGSAGSAAGSGEFMDKDCEMKRTTLDSPLGKLELSGCEQGLHEIKLLGKGTSAADAVEVPAPAAVLGGPEPLMQATAWLNAYFHQPEAIEEFPVPALHHPVFQQESFTRQVLWKLLKVVKFGEVISYQQLAALAGNPAATAAVKTALSGNPVPILIPCHRVVSSSGAVGGYEGGLAVKEWLLAHEGHRLGKPGLGMDKDCEMKRTTLDSPLGKLELSGCEQGLHEIKLLGKGTSAADAVEVPAPAAVLGGPEPLMQATAWLNAYFHQPEAIEEFPVPALHHPVFQQESFTRQVLWKLLKVVKFGEVISYQQLAALAGNPAATAAVKTALSGNPVPILIPCHRVVSSSGAVGGYEGGLAVKEWLLAHEGHRLGKPGLGGSAGSAAGSGEFHHHHHHHHHHGGGSGGGSGGGSGLNDFFEAQKIEWHEGGGSGGGSGGGSGLNDFFEAQKIEWHE
[2]
  FA koff: 0.6774 s⁻¹

B3: Synechococcus elongatus ClpS2: ClpS protein, SEQ ID NO: 106 (protein, listed as Synechococcus elongatus)
chain: MSPQPDESVLSILGVPRPCVKKRSRNDAFVLTVLTCSLQAIAAPATAPGTTTTRVRQPYPHFRVIVLDDDVNTFQHVAECLLKYIPGMTGDRAWDLTNQVHYEGAATVWSGPQEQAELYHEQLRREGLTMAPLEAA
[3]
  recognition of terminal amino acids (dwell time analysis): leucine recognition
[4]
  Binding Pref.: F, W, Y, L

B4: PS705 (protein)
chain: MSDSPVDLKPKPKVKPKLERPKLYKVMLLNDDYTPMSFVTVVLKAVFRMSEDTGRRVMMTAHRFGSAVVVVCERDIAETKAKEATDLGKEAGFPLMFTTEPEEHHHHHHHHHHGGGSGGGSGGGSGLNDFFEAQKIEWHEGGGSGGGSGGGSGLNDFFEAQKIEWHEGSAGSAAGSGEFMDKDCEMKRTTLDSPLGKLELSGCEQGLHEIKLLGKGTSAADAVEVPAPAAVLGGPEPLMQATAWLNAYFHQPEAIEEFPVPALHHPVFQQESFTRQVLWKLLKVVKFGEVISYQQLAALAGNPAATAAVKTALSGNPVPILIPCHRVVSSSGAVGGYEGGLAVKEWLLAHEGHRLGKPGLG
[2]
  FA koff: 1.2655 s⁻¹

B5: H. sapiens Fyn SH2 domain triple mutant superbinder: SEQ ID NO: 117 (protein, listed as Homo sapiens)
chain: MGAMDSIQAEEWYFGKLGRKDAERQLLSFGNPRGTFLIRESETVKGAYALSIRDWDDMKGDHVKHYLIRKLDNGGYYITTRAQFETLQQLVQHYSERAAGLSSRLVVPSHK
[5]; negative controls: N-terminal unmodified tyrosine (Y), YY, N-terminal phospho-serine
  peptide binding (single-molecule signal traces): binding was not detected
[5]; peptide containing N-terminal phospho-tyrosine
  peptide binding (single-molecule signal traces): Peptide binding by the immobilized protein was detected
[6]
  Binding Pref.: phospho-Y

B6: atClpS1: Agrobacterium tumifaciens ClpS1, SEQ ID NO: 93 (protein, listed as Agrobacterium tumifaciens)
chain: MIAEPICMQGEGDGEDGGTNRGTSVITRVKPKTKRPNLYRVLLLNDDYTPMEFVIHILERFFQKDREAATRIMLHVHQHGVGECGVFTYEVAETKVSQVMDFARQHQHPLQCVMEKK
[3]
  recognition of terminal amino acids (dwell time analysis): differentiable recognition of phenylalanine, leucine, tryptophan, and tyrosine
[7]
  Pulse rate: 8.1 pulses/min
  mean pulse duration: 1.3 s
[4]
  Binding Pref.: F, W, Y, L

B7: PS703 (protein)
chain: MSDSPVDLKPKPKVKPKLERPKLYKVMLLNDDYTPMSFVTVVLKAVFRMSEDTGRRVMMTAHRFGSAVVVVCERDIAETKAKEATDLGKEAGFPLMFTTEPEEGSAGSAAGSGEFMDKDCEMKRTTLDSPLGKLELSGCEQGLHEIKLLGKGTSAADAVEVPAPAAVLGGPEPLMQATAWLNAYFHQPEAIEEFPVPALHHPVFQQESFTRQVLWKLLKVVKFGEVISYQQLAALAGNPAATAAVKTALSGNPVPILIPCHRVVSSSGAVGGYEGGLAVKEWLLAHEGHRLGKPGLGGSAGSAAGSGEFHHHHHHHHHHGGGSGGGSGGGSGLNDFFEAQKIEWHEGGGSGGGSGGGSGLNDFFEAQKIEWHE
[2]
  FA koff: 0.7674 s⁻¹
